Assay results published in article PMC8460447 (Nature chemical biology, 2021).

Target: neddylated CUL5 (human, UniProt Q93034 1-780, Lys724 isopeptide-linked to NEDD8)
Assay: cryo-EM structure

Chain of neddylated CUL5 (Q93034 whole entry): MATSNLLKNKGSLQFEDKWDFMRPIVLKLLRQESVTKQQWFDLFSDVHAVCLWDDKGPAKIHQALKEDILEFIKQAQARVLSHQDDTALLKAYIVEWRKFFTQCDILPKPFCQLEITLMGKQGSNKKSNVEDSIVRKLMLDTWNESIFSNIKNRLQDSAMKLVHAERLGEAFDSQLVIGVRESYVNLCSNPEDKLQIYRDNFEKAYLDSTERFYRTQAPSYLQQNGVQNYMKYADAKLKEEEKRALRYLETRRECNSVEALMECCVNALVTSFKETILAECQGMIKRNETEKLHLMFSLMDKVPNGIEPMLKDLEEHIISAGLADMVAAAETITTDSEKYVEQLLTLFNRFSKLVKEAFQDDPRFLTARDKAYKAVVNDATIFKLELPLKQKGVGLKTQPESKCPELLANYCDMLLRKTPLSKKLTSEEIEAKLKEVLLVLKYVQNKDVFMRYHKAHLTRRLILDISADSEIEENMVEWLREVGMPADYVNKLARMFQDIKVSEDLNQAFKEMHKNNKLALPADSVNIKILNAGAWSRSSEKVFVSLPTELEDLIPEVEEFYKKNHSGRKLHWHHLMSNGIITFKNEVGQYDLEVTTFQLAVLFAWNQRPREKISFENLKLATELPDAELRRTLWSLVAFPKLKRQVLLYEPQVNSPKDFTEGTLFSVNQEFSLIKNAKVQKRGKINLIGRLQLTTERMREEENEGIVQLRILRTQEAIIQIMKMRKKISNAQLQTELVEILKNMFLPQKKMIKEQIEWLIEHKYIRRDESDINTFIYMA

Row | binding result | Binder
1 | binds | ARIH2* (full-length ARIH2 with L381A, E382A and E455A residue substitutions) (enzyme) MSVDMNSQGSDSNEEDYDPNCEEEEEEEEDDPGDIEDYYVGVASDVEQQGADAFDPEEYQFTCLTYKESEGALNEHMTSLASVLKVSHSVAKLILVNFHWQVSEILDRYKSNSAQLLVEARVQPNPSKHVPTSHPPHHCAVCMQFVRKENLLSLACQHQFCRSCWEQHCSVLVKDGVGVGVSCMAQDCPLRTPEDFVFPLLPNEELREKYRRYLFRDYVESHYQLQLCPGADCPMVIRVQEPRARRVQCNRCNEVFCFKCRQMYHAPTDCATIRKWLTKCADDSETANYISAHTKDCPKCNICIEKNGGCNHMQCSKCKHDFCWMCLGDWKTHGSEYYECSRYKENPDIVNQSQQAQAREALKKYLFYFERWENHNKSLQAAAQTYQRIHEKIQERVMNNLGTWIDWQYLQNAAKLLAKCRYTLQYTYPYAYYMESGPRKKLFEYQQAQLEAEIANLSWKVERADSYDRGDLENQMHIAEQRRRTLLKDFHDT
2 | binds | RBX2 (natural protein) EDGEETCALASHSGSSGSKSGGDKMFSLKKWNAVAMWSWDVECDTCAICRVQVMDACLRCQAENKQEDCVVVWGECNHSFHNCCMSLWVKQNNRCPLCQQDWVVQRIGK
